In patent US20230203177A1 (Bristol-Myers Squibb, published 2023):

Target: T1, soluble human CD40 extracellular domain (human, UniProt P25942 21-193)
T1 construct: Produced in house; also called hCD40; soluble hCD40 extracellular domain
Assay: SPR, Ab captured from supernatant on protein A, hCD40 ECD analyte
Protocol: The titer data (Table 21) were used to normalize the antibody concentration in each supernatant to 3 μg/ml, and these antibodies were captured out of the supernatants on a protein A CMS Series S sensor chip (GE Healthcare), and tested for binding to two concentrations (5 nM and 50 nM) of soluble hCD40 extracellular domain.
CD40 binding SPR of antibody supernatants: Surface plasmon resonance (SPR) studies were conducted on a BIAcore™ T200 instrument (GE Healthcare, Chicago Ill.). A Series S Protein A sensor chip (GE Healthcare, Chicago Ill.) was equilibrated with SPR running buffer of 10 mM NaPO₄, 130 mM NaCl, 0.05% tween 20, (PBS-T) pH 7.2 at 25° C. The 96 antibody supernatants were normalized to a concentration of 3 μg/ml by diluting with PBS-T using a PerkinElmer JANUS® G3 system (PerkinElmer, Akron, Ohio). After priming the system, the 3 μg/ml antibody samples were captured on the protein A surface for 30 s at 10 μl/min Binding of 50 nM and 500 nM human CD40 extracellular domain (produced in house) was evaluated using association time of 180 s at 30 μl/min, followed by a dissociation time of 180 s at 30 μl/min Regeneration between cycles was accomplished using two 15 s injections of 10 mM glycine pH 1.5. […] Data were analyzed using BIAcore™ T200 evaluation software by fitting to a 1:1 Langmuir model.

T1 sequence (P25942 21-193 limits assumed): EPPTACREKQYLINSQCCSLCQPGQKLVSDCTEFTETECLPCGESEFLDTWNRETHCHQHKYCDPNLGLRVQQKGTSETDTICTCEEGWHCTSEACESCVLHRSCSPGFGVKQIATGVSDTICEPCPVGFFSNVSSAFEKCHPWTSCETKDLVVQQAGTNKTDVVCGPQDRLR

| Binder | Kd [nM] |
| --- | --- |
| M44 (HC-R57E,K74Q / LC-K45E) (antibody, human IgG1, kappa, V domains shown, IgG1-P238K; also called HC12/LC3) VH: QVQLVQSGAEVKKPGSSVKVSCKASGYAFTSYWMHWVRQAPGQGLEWMGQINPTTGESQYNEKFKTRVTITADQSTSTAYMELSSLRSEDTAVYYCARWGLQPFAYWGQGTLVTVSS VL: DIQMTQSPSFLSASVGDRVTITCKASQDVSTAVAWYQQKPGKAPELLIYSASYRYTGVPSRFSGSGSGTDFTLTISSLQPEDFATYYCQQHYSTPWTFGGGTKVEIKR | 17.2 |
| M56 (HC-R38Q,K63Q,R67Q / LC-K45Q,R54Q,R61Q) (antibody, human IgG1, kappa, V domains shown, IgG1-P238K; also called HC8/LC4) VH: QVQLVQSGAEVKKPGSSVKVSCKASGYAFTSYWMHWVQQAPGQGLEWMGQINPTTGRSQYNEQFKTQVTITADKSTSTAYMELSSLRSEDTAVYYCARWGLQPFAYWGQGTLVTVSS VL: DIQMTQSPSFLSASVGDRVTITCKASQDVSTAVAWYQQKPGKAPQLLIYSASYQYTGVPSQFSGSGSGTDFTLTISSLQPEDFATYYCQQHYSTPWTFGGGTKVEIKR | 2.5 |
| M51 (HC-K12Q,K13Q,K23Q / LC-K45Q,R54Q,R61Q) (antibody, human IgG1, kappa, V domains shown, IgG1-P238K; also called HC3/LC4) VH: QVQLVQSGAEVQQPGSSVKVSCQASGYAFTSYWMHWVRQAPGQGLEWMGQINPTTGRSQYNEKFKTRVTITADKSTSTAYMELSSLRSEDTAVYYCARWGLQPFAYWGQGTLVTVSS VL: DIQMTQSPSFLSASVGDRVTITCKASQDVSTAVAWYQQKPGKAPQLLIYSASYQYTGVPSQFSGSGSGTDFTLTISSLQPEDFATYYCQQHYSTPWTFGGGTKVEIKR | 2.9 |
| M57 (HC-K63Q,R67E / LC-K45Q,R54Q,R61Q) (antibody, human IgG1, kappa, V domains shown, IgG1-P238K; also called HC9/LC4) VH: QVQLVQSGAEVKKPGSSVKVSCKASGYAFTSYWMHWVRQAPGQGLEWMGQINPTTGRSQYNEQFKTEVTITADKSTSTAYMELSSLRSEDTAVYYCARWGLQPFAYWGQGTLVTVSS VL: DIQMTQSPSFLSASVGDRVTITCKASQDVSTAVAWYQQKPGKAPQLLIYSASYQYTGVPSQFSGSGSGTDFTLTISSLQPEDFATYYCQQHYSTPWTFGGGTKVEIKR | 2.5 |
| M58 (HC-R67E / LC-K45Q,R54Q,R61Q) (antibody, human IgG1, kappa, V domains shown, IgG1-P238K; also called HC10/LC4) VH: QVQLVQSGAEVKKPGSSVKVSCKASGYAFTSYWMHWVRQAPGQGLEWMGQINPTTGRSQYNEKFKTEVTITADKSTSTAYMELSSLRSEDTAVYYCARWGLQPFAYWGQGTLVTVSS VL: DIQMTQSPSFLSASVGDRVTITCKASQDVSTAVAWYQQKPGKAPQLLIYSASYQYTGVPSQFSGSGSGTDFTLTISSLQPEDFATYYCQQHYSTPWTFGGGTKVEIKR | 2.1 |
| M61 (HC-E46K,E62K / LC-K45Q,R54Q,R61Q) (antibody, human IgG1, kappa, V domains shown, IgG1-P238K; also called HC13/LC4) VH: QVQLVQSGAEVKKPGSSVKVSCKASGYAFTSYWMHWVRQAPGQGLKWMGQINPTTGRSQYNKKFKTRVTITADKSTSTAYMELSSLRSEDTAVYYCARWGLQPFAYWGQGTLVTVSS VL: DIQMTQSPSFLSASVGDRVTITCKASQDVSTAVAWYQQKPGKAPQLLIYSASYQYTGVPSQFSGSGSGTDFTLTISSLQPEDFATYYCQQHYSTPWTFGGGTKVEIKR | 7.5 |
| M66 (HC-K12Q,K13Q / LC-R61Q) (antibody, human IgG1, kappa, IgG1-P238K; also called HC2/LC5) heavy: not shown light: DIQMTQSPSFLSASVGDRVTITCKASQDVSTAVAWYQQKPGKAPKLLIYSASYRYTGVPSQFSGSGSGTDFTLTISSLQPEDFATYYCQQHYSTPWTFGGGTKVEIKRTVAAPSVFIFPPSDEQLKSGTASVVCLLNNFYPREAKVQWKVDNALQSGNSQESVTEQDSKDSTYSLSSTLTLSKADYEKHKVYACEVTHQGLSSPVTKSFNRGEC | 3.6 |
| M50 (HC-K12Q,K13Q / LC-K45Q,R54Q,R61Q) (antibody, human IgG1, kappa, IgG1-P238K; also called HC2/LC4) heavy: not shown light: DIQMTQSPSFLSASVGDRVTITCKASQDVSTAVAWYQQKPGKAPQLLIYSASYQYTGVPSQFSGSGSGTDFTLTISSLQPEDFATYYCQQHYSTPWTFGGGTKVEIKRTVAAPSVFIFPPSDEQLKSGTASVVCLLNNFYPREAKVQWKVDNALQSGNSQESVTEQDSKDSTYSLSSTLTLSKADYEKHKVYACEVTHQGLSSPVTKSFNRGEC | 2.5 |
| M68 (HC-K12E / LC-R61Q) (antibody, human IgG1, kappa, IgG1-P238K; also called HC4/LC5) heavy: not shown light: DIQMTQSPSFLSASVGDRVTITCKASQDVSTAVAWYQQKPGKAPKLLIYSASYRYTGVPSQFSGSGSGTDFTLTISSLQPEDFATYYCQQHYSTPWTFGGGTKVEIKRTVAAPSVFIFPPSDEQLKSGTASVVCLLNNFYPREAKVQWKVDNALQSGNSQESVTEQDSKDSTYSLSSTLTLSKADYEKHKVYACEVTHQGLSSPVTKSFNRGEC | 3.6 |
| M59 (HC-R57E / LC-K45Q,R54Q,R61Q) (antibody, human IgG1, kappa, V domains shown, IgG1-P238K; also called HC11/LC4) VH: QVQLVQSGAEVKKPGSSVKVSCKASGYAFTSYWMHWVRQAPGQGLEWMGQINPTTGESQYNEKFKTRVTITADKSTSTAYMELSSLRSEDTAVYYCARWGLQPFAYWGQGTLVTVSS VL: DIQMTQSPSFLSASVGDRVTITCKASQDVSTAVAWYQQKPGKAPQLLIYSASYQYTGVPSQFSGSGSGTDFTLTISSLQPEDFATYYCQQHYSTPWTFGGGTKVEIKR | 9.5 |
| M60 (HC-R57E,K74Q / LC-K45Q,R54Q,R61Q) (antibody, human IgG1, kappa, V domains shown, IgG1-P238K; also called HC12/LC4) VH: QVQLVQSGAEVKKPGSSVKVSCKASGYAFTSYWMHWVRQAPGQGLEWMGQINPTTGESQYNEKFKTRVTITADQSTSTAYMELSSLRSEDTAVYYCARWGLQPFAYWGQGTLVTVSS VL: DIQMTQSPSFLSASVGDRVTITCKASQDVSTAVAWYQQKPGKAPQLLIYSASYQYTGVPSQFSGSGSGTDFTLTISSLQPEDFATYYCQQHYSTPWTFGGGTKVEIKR | 14.7 |
| M64 (HC-K63Q / LC-K45Q,R54Q,R61Q) (antibody, human IgG1, kappa, V domains shown, IgG1-P238K; also called HC16/LC4) VH: QVQLVQSGAEVKKPGSSVKVSCKASGYAFTSYWMHWVRQAPGQGLEWMGQINPTTGRSQYNEQFKTRVTITADKSTSTAYMELSSLRSEDTAVYYCARWGLQPFAYWGQGTLVTVSS VL: DIQMTQSPSFLSASVGDRVTITCKASQDVSTAVAWYQQKPGKAPQLLIYSASYQYTGVPSQFSGSGSGTDFTLTISSLQPEDFATYYCQQHYSTPWTFGGGTKVEIKR | 3.3 |
| M67 (HC-K12Q,K13Q,K23Q / LC-R61Q) (antibody, human IgG1, kappa, V domains shown, IgG1-P238K; also called HC3/LC5) VH: QVQLVQSGAEVQQPGSSVKVSCQASGYAFTSYWMHWVRQAPGQGLEWMGQINPTTGRSQYNEKFKTRVTITADKSTSTAYMELSSLRSEDTAVYYCARWGLQPFAYWGQGTLVTVSS VL: DIQMTQSPSFLSASVGDRVTITCKASQDVSTAVAWYQQKPGKAPKLLIYSASYRYTGVPSQFSGSGSGTDFTLTISSLQPEDFATYYCQQHYSTPWTFGGGTKVEIKR | 3.6 |
| M65 (HC-wt / LC-R61Q) (antibody, human IgG1, kappa, IgG1-P238K; also called HC1/LC5) heavy: not shown light: DIQMTQSPSFLSASVGDRVTITCKASQDVSTAVAWYQQKPGKAPKLLIYSASYRYTGVPSQFSGSGSGTDFTLTISSLQPEDFATYYCQQHYSTPWTFGGGTKVEIKRTVAAPSVFIFPPSDEQLKSGTASVVCLLNNFYPREAKVQWKVDNALQSGNSQESVTEQDSKDSTYSLSSTLTLSKADYEKHKVYACEVTHQGLSSPVTKSFNRGEC | 4.3 |
| M45 (HC-E46K,E62K / LC-K45E) (antibody, human IgG1, kappa, V domains shown, IgG1-P238K; also called HC13/LC3) VH: QVQLVQSGAEVKKPGSSVKVSCKASGYAFTSYWMHWVRQAPGQGLKWMGQINPTTGRSQYNKKFKTRVTITADKSTSTAYMELSSLRSEDTAVYYCARWGLQPFAYWGQGTLVTVSS VL: DIQMTQSPSFLSASVGDRVTITCKASQDVSTAVAWYQQKPGKAPELLIYSASYRYTGVPSRFSGSGSGTDFTLTISSLQPEDFATYYCQQHYSTPWTFGGGTKVEIKR | 8.8 |
| M69 (HC-K12E,K13Q,K23E / LC-R61Q) (antibody, human IgG1, kappa, IgG1-P238K; also called HC5/LC5) heavy: not shown light: DIQMTQSPSFLSASVGDRVTITCKASQDVSTAVAWYQQKPGKAPKLLIYSASYRYTGVPSQFSGSGSGTDFTLTISSLQPEDFATYYCQQHYSTPWTFGGGTKVEIKRTVAAPSVFIFPPSDEQLKSGTASVVCLLNNFYPREAKVQWKVDNALQSGNSQESVTEQDSKDSTYSLSSTLTLSKADYEKHKVYACEVTHQGLSSPVTKSFNRGEC | 3.8 |
| M55 (HC-K23E / LC-K45Q,R54Q,R61Q) (antibody, human IgG1, kappa, IgG1-P238K; also called HC7/LC4) heavy: not shown light: DIQMTQSPSFLSASVGDRVTITCKASQDVSTAVAWYQQKPGKAPQLLIYSASYQYTGVPSQFSGSGSGTDFTLTISSLQPEDFATYYCQQHYSTPWTFGGGTKVEIKRTVAAPSVFIFPPSDEQLKSGTASVVCLLNNFYPREAKVQWKVDNALQSGNSQESVTEQDSKDSTYSLSSTLTLSKADYEKHKVYACEVTHQGLSSPVTKSFNRGEC | 3.5 |
| M52 (HC-K12E / LC-K45Q,R54Q,R61Q) (antibody, human IgG1, kappa, IgG1-P238K; also called HC4/LC4) heavy: not shown light: DIQMTQSPSFLSASVGDRVTITCKASQDVSTAVAWYQQKPGKAPQLLIYSASYQYTGVPSQFSGSGSGTDFTLTISSLQPEDFATYYCQQHYSTPWTFGGGTKVEIKRTVAAPSVFIFPPSDEQLKSGTASVVCLLNNFYPREAKVQWKVDNALQSGNSQESVTEQDSKDSTYSLSSTLTLSKADYEKHKVYACEVTHQGLSSPVTKSFNRGEC | 2.6 |
| M48 (HC-K63Q / LC-K45E) (antibody, human IgG1, kappa, V domains shown, IgG1-P238K; also called HC16/LC3) VH: QVQLVQSGAEVKKPGSSVKVSCKASGYAFTSYWMHWVRQAPGQGLEWMGQINPTTGRSQYNEQFKTRVTITADKSTSTAYMELSSLRSEDTAVYYCARWGLQPFAYWGQGTLVTVSS VL: DIQMTQSPSFLSASVGDRVTITCKASQDVSTAVAWYQQKPGKAPELLIYSASYRYTGVPSRFSGSGSGTDFTLTISSLQPEDFATYYCQQHYSTPWTFGGGTKVEIKR | 3.8 |
| M46 (HC-K74T / LC-K45E) (antibody, human IgG1, kappa, V domains shown, IgG1-P238K; also called HC14/LC3) VH: QVQLVQSGAEVKKPGSSVKVSCKASGYAFTSYWMHWVRQAPGQGLEWMGQINPTTGRSQYNEKFKTRVTITADTSTSTAYMELSSLRSEDTAVYYCARWGLQPFAYWGQGTLVTVSS VL: DIQMTQSPSFLSASVGDRVTITCKASQDVSTAVAWYQQKPGKAPELLIYSASYRYTGVPSRFSGSGSGTDFTLTISSLQPEDFATYYCQQHYSTPWTFGGGTKVEIKR | 3.9 |
